The target in assay [1] is GLP-2R W249^ECL1A (human) (UniProt O95838). Description: radioligand binding; competition on transiently transfected COS-7 cells: unlabeled GLP-2(1–33) 0.1 nM to 1 μM against 10–15 pM [125I]GLP-2(1–33, M10Y); 4 h, 4 °C; 50 mM HEPES pH 7.4, 1 mM CaCl2, 5 mM MgCl2, 0.5% BSA; three-parameter logistic fit.
Assay [2] has as its target GLP-2R R344^5.40A (human) (UniProt O95838). The assay is described as above.
The target of assay [3] is GLP-2R Y182^1.43A (human) (UniProt O95838). The description is as above.
Assay [4] addresses GLP-2R N247^ECL1A (human) (UniProt O95838). Described as above.
Assay [5] concerns the target GLP-2R W340^5.36A (human) (UniProt O95838). The description is as above.
Assay [6] concerns the target GLP-2R ECL1 (poly-alanine) (human) (UniProt O95838). The description is as above.
Assay [7] has as its target GLP-2R D244^ECL1A (human) (UniProt O95838). The assay is described as above.
Assay [8] has as its target GLP-2R K414^7.35 A (human) (UniProt O95838). The assay is described as above.
In assay [9] the target is T1, GLP-2R Y182^1.43A (Homo sapiens, UniProt O95838, Y182A).
T1 sequence (O95838 1-553 Y182A): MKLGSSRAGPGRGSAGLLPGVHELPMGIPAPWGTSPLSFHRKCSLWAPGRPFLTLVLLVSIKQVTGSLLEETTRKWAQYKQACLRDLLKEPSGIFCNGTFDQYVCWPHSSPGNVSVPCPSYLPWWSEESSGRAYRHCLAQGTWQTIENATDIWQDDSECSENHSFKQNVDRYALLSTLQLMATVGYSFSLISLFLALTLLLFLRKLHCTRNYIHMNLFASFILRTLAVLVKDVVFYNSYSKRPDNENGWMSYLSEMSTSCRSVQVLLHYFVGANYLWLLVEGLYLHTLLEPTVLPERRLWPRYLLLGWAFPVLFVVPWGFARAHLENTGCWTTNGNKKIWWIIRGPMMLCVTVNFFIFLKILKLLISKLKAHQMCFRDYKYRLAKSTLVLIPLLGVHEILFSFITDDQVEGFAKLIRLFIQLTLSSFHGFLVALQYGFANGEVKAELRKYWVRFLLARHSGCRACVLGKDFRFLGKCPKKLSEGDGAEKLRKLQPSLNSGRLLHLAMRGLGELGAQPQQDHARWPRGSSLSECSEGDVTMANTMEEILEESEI
Description: cAMP accumulation, Y182^1.43A. In kind it is cell-based. Further details: WT (1–553); expressed in transfected cells; HEK 293T (cAMP). To be noted: Table S3, Y182A; HEK 293T, 30 min, RT; mean ± SEM, n ≥ 3 in duplicate; read-out: cAMP Emax (% WT). How it is done: (§1) HEK 293T cells were cultured in Dulbecco’s Modified Eagle’s Medium (DMEM) (Gibco, Waltham, USA) supplemented with 10% (v/v) fetal bovine serum (FBS) (Gibco) and 1% (v/v) sodium pyruvate (Gibco) at 37 °C, 5% CO2 in a humidified incubator. They were seeded onto 6-well cell culture plates and transiently transfected with different GLP-2R constructs using Lipofectamine 2000 transfection reagent (Invitrogen, Carlsbad, CA, USA). After 24 h, the transfected cells were seeded onto 384-well microtiter plates (3000 cells per well) in HBSS supplemented with 5 mM HEPES, 0.1% (w/v) bovine serum albumin (BSA) and 0.5 mM 3-isobutyl-1- methylxanthine, and stimulated with increasing concentrations of GLP-2 for 30 min at RT. Eu and Ulight were diluted by cAMP detection buffer and added to the plates separately to terminate the reaction. Plates were incubated at RT for 60 min before measuring the fluorescence intensity at 620 nm and […] by an EnVision multilabel plate reader (PerkinElmer, Boston, USA).
Background: Cyclic AMP is a second messenger, typically raised through Gs and lowered through Gi signalling.

Assay [10] addresses T2, GLP-2R (1-490)-LgBiT (Homo sapiens, UniProt O95838).
T2 construct: the C-terminus-truncated GLP-2R(1–490)-LgBiT; HA signal peptide (N); TEV site-OMBP-MBP (C); expressed in transfected cells; host or cells: HEK 293T
The experiment in a line: cAMP accumulation, truncated construct. In kind it is cell-based. To be noted: Table S2, GLP-2R (1-490)-LgBiT; HEK 293T, 30 min, RT; mean ± SEM, n ≥ 3 in duplicate; read-out: cAMP accumulation Emax (% WT). How it is done:
as §1

Drawing on article PMC7785020, “A unique hormonal recognition feature of the human glucagon-like peptide-2 receptor” (Cell Research, 2020), this text covers % Binding of WT and Emax for 2 compounds.

T2 sequence (O95838 1-490): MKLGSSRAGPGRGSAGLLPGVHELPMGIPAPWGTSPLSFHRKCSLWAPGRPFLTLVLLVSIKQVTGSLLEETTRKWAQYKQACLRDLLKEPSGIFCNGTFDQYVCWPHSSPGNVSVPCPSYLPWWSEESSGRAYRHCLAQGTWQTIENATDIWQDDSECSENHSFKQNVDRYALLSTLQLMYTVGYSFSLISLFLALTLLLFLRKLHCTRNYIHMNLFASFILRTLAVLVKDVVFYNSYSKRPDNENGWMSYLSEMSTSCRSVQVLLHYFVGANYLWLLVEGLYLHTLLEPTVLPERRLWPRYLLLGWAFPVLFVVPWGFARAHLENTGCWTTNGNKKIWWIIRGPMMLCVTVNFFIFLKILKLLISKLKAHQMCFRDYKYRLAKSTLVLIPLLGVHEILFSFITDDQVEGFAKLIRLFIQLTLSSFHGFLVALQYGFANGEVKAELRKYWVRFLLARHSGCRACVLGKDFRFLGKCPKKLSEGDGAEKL
Chain of GLP-2R K414^7.35 A (human) (O95838 whole entry K414A): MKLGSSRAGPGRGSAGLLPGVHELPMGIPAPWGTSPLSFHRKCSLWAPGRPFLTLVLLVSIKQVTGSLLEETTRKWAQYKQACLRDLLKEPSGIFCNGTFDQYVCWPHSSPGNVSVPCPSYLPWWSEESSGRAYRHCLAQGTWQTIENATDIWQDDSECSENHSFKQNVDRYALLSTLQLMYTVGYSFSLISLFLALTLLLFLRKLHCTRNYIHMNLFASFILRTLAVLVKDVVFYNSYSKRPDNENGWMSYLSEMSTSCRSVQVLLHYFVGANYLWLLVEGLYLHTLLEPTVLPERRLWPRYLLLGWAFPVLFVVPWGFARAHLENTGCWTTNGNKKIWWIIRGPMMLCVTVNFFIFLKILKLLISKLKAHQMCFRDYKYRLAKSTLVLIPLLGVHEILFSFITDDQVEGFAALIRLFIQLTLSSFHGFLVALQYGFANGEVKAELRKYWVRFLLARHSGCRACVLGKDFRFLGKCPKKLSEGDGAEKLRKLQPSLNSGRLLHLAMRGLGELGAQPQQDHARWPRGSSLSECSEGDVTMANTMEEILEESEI
Chain of GLP-2R ECL1 (poly-alanine) (human) (O95838 whole entry): as the sequence (O95838 whole entry K414A) above, with A414K counted along it
Chain of GLP-2R D244^ECL1A (human) (O95838 whole entry D244A): as the sequence (O95838 whole entry K414A) above, with D244A, A414K counted along it

In the case of [^125I]GLP-2(1–33, M10Y) (peptide), the % Binding of WT in assay [1] was 2.2%; in assay [2], 5%; in assay [3], 3.4%; in assay [4], 131%; in assay [5], 7.3%; in [6], 3%. Moreover, the % Binding of WT in [7] is 69.1%; in assay [8], 15.2%.

Regarding `CC[C@H](C)[C@H](NC(=O)[C@H](Cc1ccccc1)NC(=O)[C@H](CC(=O)O)NC(=O)[C@H](CCCNC(=N)N)NC(=O)[C@H](C)NC(=O)[C@H](C)NC(=O)[C@H](CC(C)C)NC(=O)[C@H](CC(N)=O)NC(=O)[C@H](CC(=O)O)NC(=O)[C@H](CC(C)C)NC(=O)[C@@H](NC(=O)[C@@H](NC(=O)[C@H](CC(N)=O)NC(=O)[C@H](CCSC)NC(=O)[C@H](CCC(=O)O)NC(=O)[C@H](CC(=O)O)NC(=O)[C@H](CO)NC(=O)[C@H](Cc1ccccc1)NC(=O)[C@H](CO)NC(=O)CNC(=O)[C@H](CC(=O)O)NC(=O)[C@H](C)NC(=O)[C@@H](N)Cc1c[nH]cn1)[C@@H](C)O)[C@@H](C)CC)C(=O)N[C@@H](CC(N)=O)C(=O)N[C@@H](Cc1c[nH]c2ccccc12)C(=O)N[C@@H](CC(C)C)C(=O)N[C@H](C(=O)N[C@@H](CCC(N)=O)C(=O)N[C@H](C(=O)N[C@@H](CCCCN)C(=O)N[C@H](C(=O)N[C@H](C(=O)N[C@@H](CC(=O)O)C(=O)O)[C@@H](C)O)[C@@H](C)CC)[C@@H](C)O)[C@@H](C)CC` [Human GLP-2 (1–33)], the figures for the Emax in [9] and in assay [10] were 102 ± 3.9% and 85.3 ± 4%, respectively.

For orientation: Emax means the size of the effect at its maximum, as opposed to the concentration needed.
